The record followed here is patent US20110305629A1 (published 2011).

The target of the test is T1, soluble αvβ6 (UniProt P06756 31-992; P18564 22-709, Biotinylated in the blocking ELISA of FIG. 7; the biotin sites are not stated.).
T1 alpha: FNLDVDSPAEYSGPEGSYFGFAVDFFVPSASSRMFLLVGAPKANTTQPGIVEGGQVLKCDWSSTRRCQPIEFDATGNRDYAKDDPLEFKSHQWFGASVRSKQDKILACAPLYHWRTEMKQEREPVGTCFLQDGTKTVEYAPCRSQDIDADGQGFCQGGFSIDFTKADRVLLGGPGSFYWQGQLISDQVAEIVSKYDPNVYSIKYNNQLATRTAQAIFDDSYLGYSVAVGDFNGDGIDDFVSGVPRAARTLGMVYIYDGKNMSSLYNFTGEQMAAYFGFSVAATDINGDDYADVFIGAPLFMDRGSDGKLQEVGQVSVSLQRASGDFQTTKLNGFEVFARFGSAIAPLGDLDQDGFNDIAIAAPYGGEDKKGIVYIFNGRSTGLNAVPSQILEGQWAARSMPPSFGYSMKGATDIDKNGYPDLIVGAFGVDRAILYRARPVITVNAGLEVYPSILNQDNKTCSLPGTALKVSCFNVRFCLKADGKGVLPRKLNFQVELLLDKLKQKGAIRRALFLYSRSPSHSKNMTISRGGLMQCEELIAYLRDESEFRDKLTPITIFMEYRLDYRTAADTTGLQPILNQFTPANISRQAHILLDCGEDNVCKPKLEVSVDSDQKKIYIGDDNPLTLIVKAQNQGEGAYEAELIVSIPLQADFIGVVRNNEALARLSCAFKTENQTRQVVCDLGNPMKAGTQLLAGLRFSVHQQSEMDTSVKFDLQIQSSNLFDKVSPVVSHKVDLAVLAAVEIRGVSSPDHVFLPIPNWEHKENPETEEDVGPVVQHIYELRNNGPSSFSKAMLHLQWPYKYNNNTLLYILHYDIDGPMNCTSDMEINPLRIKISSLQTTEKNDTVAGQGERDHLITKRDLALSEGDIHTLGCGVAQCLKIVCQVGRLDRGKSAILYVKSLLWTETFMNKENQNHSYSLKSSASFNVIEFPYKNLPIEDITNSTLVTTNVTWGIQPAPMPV
T1 beta: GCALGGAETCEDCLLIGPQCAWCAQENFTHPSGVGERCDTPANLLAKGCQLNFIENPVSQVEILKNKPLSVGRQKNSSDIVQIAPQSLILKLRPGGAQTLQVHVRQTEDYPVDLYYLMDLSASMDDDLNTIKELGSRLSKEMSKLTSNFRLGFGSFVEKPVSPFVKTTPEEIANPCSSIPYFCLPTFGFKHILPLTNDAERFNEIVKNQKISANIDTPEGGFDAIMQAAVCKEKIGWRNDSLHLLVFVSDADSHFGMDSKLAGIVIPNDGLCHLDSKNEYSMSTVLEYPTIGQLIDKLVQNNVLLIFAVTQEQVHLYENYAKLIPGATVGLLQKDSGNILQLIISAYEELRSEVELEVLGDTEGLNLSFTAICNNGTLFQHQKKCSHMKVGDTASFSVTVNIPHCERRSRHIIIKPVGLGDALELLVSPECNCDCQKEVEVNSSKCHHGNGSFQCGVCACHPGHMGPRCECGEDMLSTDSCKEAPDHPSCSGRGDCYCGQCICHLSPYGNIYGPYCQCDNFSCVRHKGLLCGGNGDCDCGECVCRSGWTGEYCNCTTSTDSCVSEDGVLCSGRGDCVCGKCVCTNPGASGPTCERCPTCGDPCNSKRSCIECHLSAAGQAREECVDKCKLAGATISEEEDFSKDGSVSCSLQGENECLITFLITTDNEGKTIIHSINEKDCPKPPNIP
As to the kind of experiment: binding ELISA. (In general: An ELISA detects its analyte on a solid surface through an enzyme-linked reagent.)

B1: chimeric 3G9 antibody (ch3G9) (antibody, V domains shown)
VH: EVMLVESGGGLVQPGGSLRLSCAASGFTFSRYVMSWVRQAPGKGLEWVASISSGGRMYYPDTVKGRFTISRDSAKNSLYLQMNSLRAEDTAVYYCARGSIYDGYYVFPYWGQGTLVTVSS
VL: DIVLTQSPATLSLSPGERATLSCRASQSVSTSSYSYMYWYQQKPGQAPRFLIKYASNLESGIPARFSGSGSGTDFTLTISSLEPEDFAVYYCQHNWEIPFTFGGGTKVEIK
Usually EC50 stands for the midpoint of the concentration-response curve. B1 displayed an EC50 of 0.036 µg/mL.

B2: chimeric 3G9 antibody containing a N to S substitution within the N-linked glycosylation site in the first CDR of the light chain (ch3G9S) (antibody, V domains shown)
VH: EVMLVESGGGLVQPGGSLRLSCAASGFTFSRYVMSWVRQAPGKGLEWVASISSGGRMYYPDTVKGRFTISRDSAKNSLYLQMNSLRAEDTAVYYCARGSIYDGYYVFPYWGQGTLVTVSS
VL: DIVLTQSPATLSLSPGERATLSCRASQSVSTSSYSYMYWYQQKPGQAPRFLIKYASNLESGIPARFSGSGSGTDFTLTISSLEPEDFAVYYCQHNWEIPFTFGGGTKVEIK
As for B2, the EC50 amounted to 0.043 µg/mL.
